Data taken from patent publication US20110206616A1.

Target: SNAP 25 (endogenous, rat neuronal cells) (rat) (UniProt P60881)
Experiment: cell-based or functional assay

Chain of UniProt P60881 (P60881 whole entry): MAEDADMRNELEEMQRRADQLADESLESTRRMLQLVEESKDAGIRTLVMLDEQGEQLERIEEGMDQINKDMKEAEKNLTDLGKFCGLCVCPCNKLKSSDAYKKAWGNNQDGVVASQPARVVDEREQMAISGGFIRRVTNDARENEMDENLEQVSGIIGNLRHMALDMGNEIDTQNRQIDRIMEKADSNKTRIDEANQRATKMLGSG

How did the intracellular SNAP 25 cleavage (concentration of wt toxin used) turn out when “wt BoNT/A (wild type botulinum neurotoxin serotype A) (from UniProt P0DPI1 2-1296)” was run?
Its intracellular SNAP 25 cleavage (concentration of wt toxin used) is 0.5 nM.
